The RNAGym collection of RNA variant scans (doi:10.7554/elife.90254)

B1: OR4K15 (parent)
chain: GUUAACGGUCAUAGGCCAUGGAAACUAGGAGCACCAUUUCGCUGCCAGUGAAGAAAUGAACAAAGAAAAUCUGGGCCAGGCAGGCAUCAAAAGAAAUAGUCUUGCGCUCAACCAGAAAGUCUGUAAUCAUUUUAAGGGUA

Variants of: B1
Assay: self-cleavage, relative activity (ratio to wild type); higher = more cleavage; in vitro, sequencing; the parent is a self-cleaving ribozyme
Work on GUUAACGGUCAUAGGCCAUGGAAGCUAGUAGCACCAUUUCGCUGCCAGUGAAGAAAUGAACAAAGAAAAUCUGGGCCAGGCAGGCAUCAAAAGAAAUAGUCUUGCGCUCAACCAGAAAGUCUGUAAUCAUUUUAAGGGUA [A24G G29U] yielded a self-cleavage of 1.2. Variant GUUAACGGUCAUAGGCCAUGGAAGCUAGGAGCACCAUUUCGCUGCCAGUGAAGAAAUGAACAAAGAAAAUCUGGGCCAGGCAGGCAUCAAAAGAAAUAGUCUUUCGCUCAACCAGAAAGUCUGUAAUCAUUUUAAGGGUA [A24G G104U] has a self-cleavage of 0.01. In the case of GUUAACGGUCAUAGGCCAUGGAAGCUAGGAGCACCAUUUCGCUGCCAGUGAAGAAAUGAACAAAGAAAAUCUGAGCCAGGCAGGCAUCAAAAGAAAUAGUCUUGCGCUCAACCAGAAAGUCUGUAAUCAUUUUAAGGGUA [A24G G74A], the self-cleavage is reported as 0.31. GUUAACGGUCAUAGGCCAUGGAAGCUAGGAGCACCAUUUCGCUGCCAGUGAAGAAAUGAACAAAGAAAAUCUGGGCCAGGCAGGCAUCAAAAGAAAUAGUCUUGAGCUCAACCAGAAAGUCUGUAAUCAUUUUAAGGGUA [A24G C105A] showed a self-cleavage of 0.02. In the case of GUUAACGGUCAUAGGCCAUGGAAGCUAGGAGCACCAUUUCGCUGCCAGUGAAGAAAUGAACAAAGAAAAUCUGGGCCAGGCAGGCAUCAAAAGAAAUAGUCUUGCGCUCAACCAGAAAGUCUGUAAUUAUUUUAAGGGUA [A24G C128U], the self-cleavage is reported as 0.76. GUUAACGGUCAUAGGCCAUGGAAGCUAGGAGCACCAUUUCGCUGCCAGUGAAGAAAUGAACAAAGAAAAUCUGGGCCAGGCAGCCAUCAAAAGAAAUAGUCUUGCGCUCAACCAGAAAGUCUGUAAUCAUUUUAAGGGUA [A24G G84C] showed a self-cleavage of 0.53. In the case of GUUAACGGUCAUAGGCCAUGGAAGCAAGGAGCACCAUUUCGCUGCCAGUGAAGAAAUGAACAAAGAAAAUCUGGGCCAGGCAGGCAUCAAAAGAAAUAGUCUUGCGCUCAACCAGAAAGUCUGUAAUCAUUUUAAGGGUA [A24G U26A], the self-cleavage is reported as 0.98. GUUAACGGUCAUAGGCCAUGGAAGCUAGGAGCACCAUUUCGCUGCCAGUGAAGAAAUGAACAAAGAAAAACUGGGCCAGGCAGGCAUCAAAAGAAAUAGUCUUGCGCUCAACCAGAAAGUCUGUAAUCAUUUUAAGGGUA [A24G U70A] gave a self-cleavage of 1.17. Variant GUUAACGGUCAUAGGCCAUGGAAGCUAGGAGCACCAUUUCGCUGCCAGUGAAGAAAUGAACAAAGAAAAUCUAGGCCAGGCAGGCAUCAAAAGAAAUAGUCUUGCGCUCAACCAGAAAGUCUGUAAUCAUUUUAAGGGUA [A24G G73A] has a self-cleavage of 0.29. Variant GUUAACGGUCAUAGGCCAUGGAAGCUAGGAGCACCAUUCCGCUGCCAGUGAAGAAAUGAACAAAGAAAAUCUGGGCCAGGCAGGCAUCAAAAGAAAUAGUCUUGCGCUCAACCAGAAAGUCUGUAAUCAUUUUAAGGGUA [A24G U39C] has a self-cleavage of 1.35. GUUAACGGUCAUAGGCCAUGGAAGCUAGGAGCACCAUUUCGCUGCCAGUGAAGAAAUGAACAAAGAAAAUCUGGGCCAGGUAGGCAUCAAAAGAAAUAGUCUUGCGCUCAACCAGAAAGUCUGUAAUCAUUUUAAGGGUA [A24G C81U] gave a self-cleavage of 0.64. With GUUAACGGUCAUAGGCCAUGGAAGCUAGGAGCACCAUUUCGCUGCCAGUGAAGAAAUGAACAAAGAAAAUCUGGGCCAGGGAGGCAUCAAAAGAAAUAGUCUUGCGCUCAACCAGAAAGUCUGUAAUCAUUUUAAGGGUA [A24G C81G] the self-cleavage was 0.21. Variant GUUAACGGUCAUAGGCCAUGGAAGCUAGGAGCACCAUUUCGCUGCCAGUGAAGAAAUUAACAAAGAAAAUCUGGGCCAGGCAGGCAUCAAAAGAAAUAGUCUUGCGCUCAACCAGAAAGUCUGUAAUCAUUUUAAGGGUA [A24G G58U] has a self-cleavage of 1.92. GUUAACGGUCAUAGGCCAUGGAAGCUAGGAGCACCAUUUCGCUGCCAGUGAAGAAAUGAACAAAUAAAAUCUGGGCCAGGCAGGCAUCAAAAGAAAUAGUCUUGCGCUCAACCAGAAAGUCUGUAAUCAUUUUAAGGGUA [A24G G65U] gave a self-cleavage of 1.3. GUUAACGGUCAUAGGCCAUGGAAGCUAGGAGCACCAUUUCGCUGCCAGUGAAGAAAUGAACAAAGAAAAUCUGGGCCAGGCAGGCAUCAAAAGAAAUAGUCUUGCGCUUAACCAGAAAGUCUGUAAUCAUUUUAAGGGUA [A24G C109U] showed a self-cleavage of 0.46. With GUUAACGGUCAUAGGCCAUGGAAGCUAGGAGCACCAUUUCGCUGCCAGUGAAGAAAUGAACAAAGAAAAUCUGGGCCAGGCAGGCAUCAAAAGAAAUAGUCUUGCGCUAAACCAGAAAGUCUGUAAUCAUUUUAAGGGUA [A24G C109A] the self-cleavage was 0.3. GUUAACGGUCAUAGGCCAUGGAAGCUAGGAGCACCAUUUCGCUGCCAGUGAAGAAAUGAACAAAGAAAAUCUGGGCCAGGCAAGCAUCAAAAGAAAUAGUCUUGCGCUCAACCAGAAAGUCUGUAAUCAUUUUAAGGGUA [A24G G83A] showed a self-cleavage of 0.98. In the case of GUUAACGGUCAUAGGCCAUGGAAGCUAGGAGCACCAUUUCGCUGCCAGCGAAGAAAUGAACAAAGAAAAUCUGGGCCAGGCAGGCAUCAAAAGAAAUAGUCUUGCGCUCAACCAGAAAGUCUGUAAUCAUUUUAAGGGUA [A24G U49C], the self-cleavage is reported as 1.37. With GUUAACGGUCAUAGGCCAUGGAAGCUAGGAGCACCAUUUCGCUGCCAGGGAAGAAAUGAACAAAGAAAAUCUGGGCCAGGCAGGCAUCAAAAGAAAUAGUCUUGCGCUCAACCAGAAAGUCUGUAAUCAUUUUAAGGGUA [A24G U49G] the self-cleavage was 0.9. Variant GUUAACGGUCAUAGGCCAUGGAAGCUAGGAGCACCAUUUCGCUGCCAGAGAAGAAAUGAACAAAGAAAAUCUGGGCCAGGCAGGCAUCAAAAGAAAUAGUCUUGCGCUCAACCAGAAAGUCUGUAAUCAUUUUAAGGGUA [A24G U49A] has a self-cleavage of 1.37. GUUAACGGUCAUAGGCCAUGGAAGCUAGGAGCACCAUUUCGCUGCCAGUGAAGAAAGGAACAAAGAAAAUCUGGGCCAGGCAGGCAUCAAAAGAAAUAGUCUUGCGCUCAACCAGAAAGUCUGUAAUCAUUUUAAGGGUA [A24G U57G] showed a self-cleavage of 0.4.
